# Measurements reported in IntAct's records for PubMed 31911079.
# B1: Lysyl oxidase homolog 2 (Homo sapiens), Q9Y4K0 (parent)
# chain: MERPLCSHLCSCLAMLALLSPLSLAQYDSWPHYPEYFQQPAPEYHQPQAPANVAKIQLRLAGQKRKHSEGRVEVYYDGQWGTVCDDDFSIHAAHVVCRELGYVEAKSWTASSSYGKGEGPIWLDNLHCTGNEATLAACTSNGWGVTDCKHTEDVGVVCSDKRIPGFKFDNSLINQIENLNIQVEDIRIRAILSTYRKRTPVMEGYVEVKEGKTWKQICDKHWTAKNSRVVCGMFGFPGERTYNTKVYKMFASRRKQRYWPFSMDCTGTEAHISSCKLGPQVSLDPMKNVTCENGLPAVVSCVPGQVFSPDGPSRFRKAYKPEQPLVRLRGGAYIGEGRVEVLKNGEWGTVCDDKWDLVSASVVCRELGFGSAKEAVTGSRLGQGIGPIHLNEIQCTGNEKSIIDCKFNAESQGCNHEEDAGVRCNTPAMGLQKKLRLNGGRNPYEGRVEVLVERNGSLVWGMVCGQNWGIVEAMVVCRQLGLGFASNAFQETWYWHGDVNSNKVVMSGVKCSGTELSLAHCRHDGEDVACPQGGVQYGAGVACSETAPDLVLNAEMVQQTTYLEDRPMFMLQCAMEENCLSASAAQTDPTTGYRRLLRFSSQIHNNGQSDFRPKNGRHAWIWHDCHRHYHSMEVFTHYDLLNLNGTKVAEGHKASFCLEDTECEGDIQKNYECANFGDQGITMGCWDMYRHDIDCQWVDITDVPPGDYLFQVVINPNFEVAESDYSNNIMKCRSRYDGHRIWMYNCHIGGSFSEETEKKFEHFSGLLNNQLSPQ
# Variants of: B1
# Conditions: with vime_human VIM
row,effect of a mutation on the interaction,Variant
1,with no effect,H626Q;H628Q;Y689F

# Variants of: B1
# Conditions: with can2_human CAPN2, P17655
# Sequence of can2_human CAPN2, P17655 (P17655 whole entry): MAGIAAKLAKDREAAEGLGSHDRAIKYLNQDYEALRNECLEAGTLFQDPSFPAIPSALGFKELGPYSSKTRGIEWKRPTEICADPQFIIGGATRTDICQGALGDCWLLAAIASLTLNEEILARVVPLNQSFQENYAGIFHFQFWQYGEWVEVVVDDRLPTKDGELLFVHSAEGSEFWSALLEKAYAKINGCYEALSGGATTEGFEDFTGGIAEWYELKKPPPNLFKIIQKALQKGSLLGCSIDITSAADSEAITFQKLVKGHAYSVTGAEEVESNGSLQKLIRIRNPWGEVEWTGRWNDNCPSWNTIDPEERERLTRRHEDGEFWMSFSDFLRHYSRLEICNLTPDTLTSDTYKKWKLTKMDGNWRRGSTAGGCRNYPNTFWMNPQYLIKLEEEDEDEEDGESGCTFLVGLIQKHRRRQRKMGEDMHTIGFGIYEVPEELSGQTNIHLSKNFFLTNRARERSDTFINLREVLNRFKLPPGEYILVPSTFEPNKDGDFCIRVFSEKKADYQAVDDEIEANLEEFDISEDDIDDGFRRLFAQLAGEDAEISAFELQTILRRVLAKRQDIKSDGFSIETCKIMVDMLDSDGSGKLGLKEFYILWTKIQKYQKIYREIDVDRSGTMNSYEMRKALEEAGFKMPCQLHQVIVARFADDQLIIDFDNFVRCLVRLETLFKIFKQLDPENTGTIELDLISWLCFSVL
row,effect of a mutation on the interaction,Variant
1,with no effect,H626Q;H628Q;Y689F
2,with no effect,N288Q;N455Q;N644Q
